Measured values as given in the supplement of paper PMC11316812.
± gives the standard deviation of the averaged measurements.

Columns and labels:
[1] = tested on: MCF7; assay: percentage of EdU-negative (G0-arrested) nuclei per well, 72 h; higher = more G0 arrest; details: reference: sequence is the full UniProt precursor, the tested protein was the secreted form or ectodomain
[2] = tested on: hTERT-HMEC; assay: as above; details: reference: sequence is the full UniProt precursor, the tested protein was the secreted form or ectodomain
[3] = protein concentration 0.03125 µM
[4] = protein concentration 0.3125 µM
[5] = protein concentration 0.0175 µM
[6] = protein concentration 0.0231125 µM
[7] = protein concentration 0.231125 µM
[8] = protein concentration 0.0225 µM
[9] = protein concentration 0.00875 µM
[10] = protein concentration 0.0875 µM
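Note: secreted proteins added to cultured cells, EdU pulse at the end, nuclei found by Hoechst imaging, EdU status from nuclear versus surrounding ring intensity ratio, PBS as neutral control.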

How did the “percentage of EdU-negative” value [1, 3] turn out when “MALPFVLLMALVVLNCKSICSLGCDLPQTHSLSNRRTLMIMAQMGRISPFSCLKDRHDFGFPQEEFDGNQFQKAQAISVLHEMIQQTFNLFSTKDSSATWDETLLDKFYTELYQQLNDLEACMMQEVGVEDTPLMNVDSILTVRKYFQRITLYLTEKKYSPCAWEVVRAEIMRSFSLSANLQERLRRKE” was run?
The value was 45.45 ± 0.21%.

What about the “percentage of EdU-negative” value [1, 4] of the same sequence?
The value was 48.29 ± 0.24%.

And the “percentage of EdU-negative” value [2, 3]?
The value was 22.9 ± 1.4%.

What about the “percentage of EdU-negative” value [2, 4] of the same sequence?
Its value is 28.6 ± 0.61%.

Which “percentage of EdU-negative” value [1, 5] does the source give for “MSAFRLWPGLLIMLGSLCHRGSPCGLSTHVEIGHRALEFLQLHNGRVNYRELLLEHQDAYQAGIVFPDCFYPSICKGGKFHDVSESTHWTPFLNASVHYIRENYPLPWEKDTEKLVAFLFGITSHMAADVSWHSLGLEQGFLRTMGAIDFHGSYSEAHSAGDFGGDVLSQFEFNFNYLARRWYVPVKDLLGIYEKLYGRKVITENVIVDCSHIQFLEMYGEMLAVSKLYPTYSTKSPFLVEQFQEYFLGGLDDMAFWSTNIYHLTSFMLENGTSDCNLPENPLFIACGGQQNHTQGSKMQKNDFHRNLTTSLTESVDRNINYTERGVFFSVNSWTPDSMSFIYKALERNIRTMFIGGSQLSQKHVSSPLASYFLSFPYARLGWAMTSADLNQDGHGDLVVGAPGYSRPGHIHIGRVYLIYGNDLGLPPVDLDLDKEAHRILEGFQPSGRFGSALAVLDFNVDGVPDLAVGAPSVGSEQLTYKGAVYVYFGSKQGGMSSSPNITISCQDIYCNLGWTLLAADVNGDSEPDLVIGSPFAPGGGKQKGIVAAFYSGPSLSDKEKLNVEAANWTVRGEEDFSWFGYSLHGVTVDNRTLLLVGSPTWKNASRLGHLLHIRDEKKSLGRVYGYFPPNGQSWFTISGDKAMGKLGTSLSSGHVLMNGTLKQVLLVGAPTYDDVSKVAFLTVTLHQGGATRMYALTSDAQPLLLSTFSGDRRFSRFGGVLHLSDLDDDGLDEIIMAAPLRIADVTSGLIGGEDGRVYVYNGKETTLGDMTGKCKSWITPCPEEKAQYVLISPEASSRFGSSLITVRSKAKNQVVIAAGRSSLGARLSGALHVYSLGSD” here?
Its value is 25.88 ± 0.089%.

What about the “percentage of EdU-negative” value ([1]; protein concentration 0.175 µM) of the same sequence?
The value was 31.8 ± 1.3%.

What about the “percentage of EdU-negative” value [2, 5] of the same sequence?
The value was 4.66 ± 0.8%.

And the “percentage of EdU-negative” value ([2]; protein concentration 0.175 µM)?
The value was 7.38 ± 0.61%.

With “MALLFSLILAICTRPGFLASPSGVRLVGGLHRCEGRVEVEQKGQWGTVCDDGWDIKDVAVLCRELGCGAASGTPSGILYEPPAEKEQKVLIQSVSCTGTEDTLAQCEQEEVYDCSHDEDAGASCENPESSFSPVPEGVRLADGPGHCKGRVEVKHQNQWYTVCQTGWSLRAAKVVCRQLGCGRAVLTQKRCNKHAYGRKPIWLSQMSCSGREATLQDCPSGPWGKNTCNHDEDTWVECEDPFDLRLVGGDNLCSGRLEVLHKGVWGSVCDDNWGEKEDQVVCKQLGCGKSLSPSFRDRKCYGPGVGRIWLDNVRCSGEEQSLEQCQHRFWGFHDCTHQEDVAVICSG” as the sequence, how does the “percentage of EdU-negative” value [1, 6] read?
The value was 24.9 ± 0.77%.

What about the “percentage of EdU-negative” value [1, 7] of the same sequence?
Its value is 27.1 ± 0.67%.

What about the “percentage of EdU-negative” value [2, 6] of the same sequence?
The value was 5.21 ± 0.98%.

And the “percentage of EdU-negative” value [2, 7]?
Its value is 5.51 ± 0.056%.

Which results are given for “MMRCCRRRCCCRQPPHALRPLLLLPLVLLPPLAAAAAGPNRCDTIYQGFAECLIRLGDSMGRGGELETICRSWNDFHACASQVLSGCPEEAAAVWESLQQEARQAPRPNNLHTLCGAPVHVRERGTGSETNQETLRATAPALPMAPAPPLLAAALALAYLLRPLA [Q496H8]”?
percentage of EdU-negative [1, 8]: 24.2 ± 1.7%; percentage of EdU-negative ([1]; protein concentration 0.225 µM): 23.3 ± 0.52%; percentage of EdU-negative [2, 8]: 4.98 ± 0.36%; percentage of EdU-negative ([2]; protein concentration 0.225 µM): 5.04 ± 1.6%

For “MKLMVLVFTIGLTLLLGVQAMPANRLSCYRKILKDHNCHNLPEGVADLTQIDVNVQDHFWDGKGCEMICYCNFSELLCCPKDVFFGPKISFVIPCNNQ”, which “percentage of EdU-negative” value [1, 8] is on record?
The value was 25.5 ± 2.2%.

And the “percentage of EdU-negative” value ([1]; protein concentration 0.225 µM)?
The value was 25.5 ± 3.6%.

What about the “percentage of EdU-negative” value [2, 8] of the same sequence?
The value was 5.85 ± 0.5%.

What about the “percentage of EdU-negative” value ([2]; protein concentration 0.225 µM) of the same sequence?
The value was 6.71 ± 0.2%.

How did the “percentage of EdU-negative” value [1, 9] turn out when “MVLWESPRQCSSWTLCEGFCWLLLLPVMLLIVARPVKLAAFPTSLSDCQTPTGWNCSGYDDRENDLFLCDTNTCKFDGECLRIGDTVTCVCQFKCNNDYVPVCGSNGESYQNECYLRQAACKQQSEILVVSEGSCATDAGSGSGDGVHEGSGETSQKETSTCDICQFGAECDEDAEDVWCVCNIDCSQTNFNPLCASDGKSYDNACQIKEASCQKQEKIEVMSLGRCQDNTTTTTKSEDGHYARTDYAENANKLEESAREHHIPCPEHYNGFCMHGKCEHSINMQEPSCRCDAGYTGQHCEKKDYSVLYVVPGPVRFQYVLIAAVIGTIQIAVICVVVLCITRKCPRSNRIHRQKQNTGHYSSDNTTRASTRLI [Q9UIK5]” was run?
The value was 23.6 ± 4.7%.

And the “percentage of EdU-negative” value [1, 10]?
The value was 28.2 ± 2%.

What about the “percentage of EdU-negative” value [2, 9] of the same sequence?
The value was 5.34 ± 0.33%.

And the “percentage of EdU-negative” value [2, 10]?
Its value is 11.1 ± 2.2%.

What does the source list for “MGSRGQGLLLAYCLLLAFASGLVLSRVPHVQGEQQEWEGTEELPSPPDHAERAEEQHEKYRPSQDQGLPASRCLRCCDPGTSMYPATAVPQINITILKGEKGDRGDRGLQGKYGKTGSAGARGHTGPKGQKGSMGAPGERCKSHYAAFSVGRKKPMHSNHYYQTVIFDTEFVNLYDHFNMFTGKFYCYVPGLYFFSLNVHTWNQKETYLHIMKNEEEVVILFAQVGDRSIMQSQSLMLELREQDQVWVRLYKGERENAIFSEELDTYITFSGYLVKHATEP [Q9BXJ1]”?
percentage of EdU-negative [1, 8]: 24.69 ± 0.17%; percentage of EdU-negative ([1]; protein concentration 0.225 µM): 23.7 ± 2.1%; percentage of EdU-negative [2, 8]: 4.31 ± 0.1%; percentage of EdU-negative ([2]; protein concentration 0.225 µM): 4.49 ± 0.49%
